# B1: Pc2TF, bivalent polycomb-based transcription factor with the flexible linker (GGGGS)4, Q9HC52 1-62; Q9HC52 1-62 (designed binder)
# chain: MELSAVGERVFAAEALLKRRIRKGRMEYLVKWKGWSQKYSTWEPEENILDARLLAAFEERERGGGGSGGGGSGGGGSGGGGSMELSAVGERVFAAEALLKRRIRKGRMEYLVKWKGWSQKYSTWEPEENILDARLLAAFEERER
# modifications: not checked
# Biological target: biotinylated histone H3 peptide trimethylated at lysine 27, H3K27me3 (21–44), P68431
# Experiment: peptide or protein array
binder,measurement,value
B1,fold smaller Kd^app than PcTF,2 fold
